The values that follow come from patent publication US9222947B2, “Anti-sAPPβ antibody” (SHIONOGI & CO., LTD., priority 2012, dated 2015).

The test addresses sAPPβ (Homo sapiens, UniProt P05067). The test is described as follows: Binding affinity on GLM chip using ProteOn (SPR). The note with it: antibody immobilized, sAPPβ as analyte. On the procedure: Binding affinity of the neoepitope antibody, 4G4 was immobilized on a GLM chip (BIO-RAD) and analyzed using a ProteOn (BIO-RAD). 4 different concentrations of sAPPβ (40, 20, 10, 5 nM) were injected as the analytes. […] Binding affinity of the internal antibody, 5H10 was immobilized on a GLM chip (BIO-RAD) and analyzed using a ProteOn (BIO-RAD). […] concentrations of sAPPβ (1000, 250, 62.5, 15.6, 3.91 nM) were injected as the analytes.

A word on the Kd: it is the constant that tells how readily two partners part at equilibrium.

Chain of sAPPβ (P05067 18-671 limits assumed): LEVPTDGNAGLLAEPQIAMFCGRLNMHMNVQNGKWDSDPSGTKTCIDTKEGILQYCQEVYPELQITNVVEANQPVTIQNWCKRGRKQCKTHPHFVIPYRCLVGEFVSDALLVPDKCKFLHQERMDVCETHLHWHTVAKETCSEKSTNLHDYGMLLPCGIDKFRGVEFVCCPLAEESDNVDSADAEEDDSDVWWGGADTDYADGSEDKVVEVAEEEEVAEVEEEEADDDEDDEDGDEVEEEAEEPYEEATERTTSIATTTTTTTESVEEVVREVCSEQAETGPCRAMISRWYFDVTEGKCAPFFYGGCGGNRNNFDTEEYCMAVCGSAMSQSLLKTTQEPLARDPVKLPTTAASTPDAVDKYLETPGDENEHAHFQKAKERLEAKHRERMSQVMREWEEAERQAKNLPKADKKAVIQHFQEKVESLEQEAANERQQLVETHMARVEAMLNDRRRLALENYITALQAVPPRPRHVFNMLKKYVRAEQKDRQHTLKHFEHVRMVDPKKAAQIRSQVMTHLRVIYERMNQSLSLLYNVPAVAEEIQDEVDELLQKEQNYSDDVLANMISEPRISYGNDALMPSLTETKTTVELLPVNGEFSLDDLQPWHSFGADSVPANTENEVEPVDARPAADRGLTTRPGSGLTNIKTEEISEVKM

B1: 5H10: mouse monoclonal antibody recognizing the internal structure/C-terminal fragments of sAPPβ; VH SEQ ID NO: 14, VL SEQ ID NO: 15 (antibody, V domains shown)
VH: QVQLQQSGTELAKPGASVKMSCKASGYTFIDYWMHWIKQSPGQGLEWIGFINPRSGSTTYNQKFRDKATLTVDTSSSTAYMQLTSLTSEDSAVYYCTRPDFDYFDYWGQGTTLTVSS
VL: DVLMTQTPLSLPVSLGDHASISCRSSQSIVQSNGNTYLEWYLQKPGQSPKLLIYKVSNRFSGVPDRFSGSGSGTDFTLKISSVEAEDLGIYYCFQASHVPLTFGAGTKLELKRA
modifications: VH of antibody 5H10; VL of antibody 5H10
B1 came in with a Kd of 0.62 nM.
